Experimental findings from publication PMC4891089, “The transcription factor GATA1 and the histone methyltransferase SET7 interact to promote VEGF-mediated angiogenesis and tumor growth and predict clinical outcome of breast cancer” (Oncotarget, 2016) are described below.

The test has as its target T1, His-tagged GATA1 (UniProt P15976 1-413).
T1 construct: GATA1; also called purified His-tagged GATA1 protein; source: His fusion from pET-28a, expressed and purified according to the manufacturers' instructions (Qiagen)
In words: pull-down; GST pull-down: purified His fusion protein incubated with GST fusion protein bound to GST beads for 4 h at 4°C; immunoblot. As to conditions: both partners purified.

T1 sequence (P15976 whole entry, the tested form may be a part): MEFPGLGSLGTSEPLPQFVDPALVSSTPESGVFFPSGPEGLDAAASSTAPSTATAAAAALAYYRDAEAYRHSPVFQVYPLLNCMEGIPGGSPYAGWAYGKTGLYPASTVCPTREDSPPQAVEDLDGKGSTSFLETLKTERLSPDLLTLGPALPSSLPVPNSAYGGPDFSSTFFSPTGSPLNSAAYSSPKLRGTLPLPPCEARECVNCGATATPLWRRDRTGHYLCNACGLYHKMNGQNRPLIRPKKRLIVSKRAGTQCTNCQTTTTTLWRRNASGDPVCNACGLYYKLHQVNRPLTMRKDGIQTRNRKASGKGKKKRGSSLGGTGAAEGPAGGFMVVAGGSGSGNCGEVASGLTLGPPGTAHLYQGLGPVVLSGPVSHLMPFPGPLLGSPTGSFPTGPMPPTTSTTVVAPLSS

B1: GST-SET7 (enzyme, UniProt Q8WTS6 1-366, looked up)
chain: MDSDDEMVEEAVEGHLDDDGLPHGFCTVTYSSTDRFEGNFVHGEKNGRGKFFFFDGSTLEGYYVDDALQGQGVYTYEDGGVLQGTYVDGELNGPAQEYDTDGRLIFKGQYKDNIRHGVCWIYYPDGGSLVGEVNEDGEMTGEKIAYVYPDERTALYGKFIDGEMIEGKLATLMSTEEGRPHFELMPGNSVYHFDKSTSSCISTNALLPDPYESERVYVAESLISSAGEGLFSKVAVGPNTVMSFYNGVRITHQEVDSRDWALNGNTLSLDEETVIDVPEPYNHVSKYCASLGHKANHSFTPNCIYDMFVHPRFGPIKCIRTLRAVEADEELTVAYGYDHSPPGKSGPEAPEWYQVELKAFQATQQK
notes: SET7 (SETD7); also called purified GST-SET7; source: GST fusion from pGEX-KG, expressed and purified according to the manufacturers' instructions (Amersham Pharmacia)
Turning to B1, the binding result is recorded as “binds”.
